The term Kd denotes the free concentration of one partner at which half of the binding sites on the other are occupied at equilibrium, for simple one-to-one binding. A low value points to higher affinity.

The test addresses Ac-Ubc9K65 (Ubc9 acetylated at K65), P63279. Kind of test: ITC; 2 μl additions of peptide to 200 μl of WT Ubc9 or Ac-Ubc9K65; 25 °C; pH 8.0, 20 mM potassium phosphate, 100 mM NaCl; iTC200; fitted assuming 1:1 binding stoichiometry. (In general: ITC needs no label: the signal is the heat of the interaction.)

Sequence of Ac-Ubc9K65 (Ubc9 acetylated at K65), P63279 (P63279 whole entry): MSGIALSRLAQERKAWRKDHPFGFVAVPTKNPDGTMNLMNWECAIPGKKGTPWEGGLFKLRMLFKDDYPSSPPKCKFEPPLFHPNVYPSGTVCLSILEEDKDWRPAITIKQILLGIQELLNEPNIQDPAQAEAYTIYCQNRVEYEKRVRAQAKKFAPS

VKVEVKEEEESSSN (modifications not checked) [CBP NDSM peptide] yielded a dissociation constant (Kd) of 105 µM.
